Measurements from the DeepSol protein solubility set.

test: soluble on expression in E. coli; label from the status in PepcDB or PDB records

| Sequence | soluble on expression in E. coli |
| --- | --- |
| MNALPPARRLRVASIGGGFSGAALAWHLARAHRPERLSISVIEPRLALGGGLAYSSEEPSHRVNVPAVRMSMAPDDPQHFVRWLAGSGELERDADAIWKNGDAYPRRRVFGRYVAEHLAPYLASGAVRHVGGPATGVTREANGAGWTVQTSAGPVIADIVVLAATHPAPAIPAALASLAEASGFVADPYAASALAGIGLDASVLIVGSGLTSADMVTELDRRGHRGRVLALSRRGLRSRGHPDVRGEPFGDFASAPATSALGLLKSIRATLAAAREANVNWQSVFDQLRLQGPVLWAALAPSERARLVRQLRVFWDVHRFRIAPQIASVLDRRQTAGTFDTIAARLVASNDEGENLAVSFQRRGQTRIETARFDAVINTTGPAHGQALQLNPALRSLAEAGLIRSDAYGLGIETSLDSRAIGWDGEAVAGLFVAGPLARGTFGELMGLPEVARHAQMVAAEIARLVDRFPSAEAVGANAGDVATARLEHHHHHH | not soluble |
| MGSDKIHHHHHHMIKLILSAPVPAMAVAFEHSFQNTENVEIIPGPFETIPEFDCMVSAANSFGLMDGGVDAAITAYFGPQLQERVQQHILREYLGEQPVGTAFVIETGNSKYPWLVHAPTMRVPLIIDGTDAVYNATRAALLAIFQHNKSAGEDRKIKSVVFPAMGAGCGQVSPGSVARQMKLAWDGFINCTTEINWQYASARQNAVFSTTAYCPSKALCPNARTEYIGFGDYRTYCKKSGNTCISPRHQVDDIYIGAHSHAVFLSPNSHGKHLKPEYLSGVKNDV | not soluble |
| MPPMHLLKSKVHIAEALNDETTMSLLKKIVSKKCISKISQWKNELSSNLDG | not soluble |
| MNTPLKRFFKIGYVIENFLHPYHNKKLLPLSRGVNIKGIFVLLNTLWRVFQDGSLQDLWSFT | not soluble |
| GQLAQDGVPEWFHGAISREDAENLLESQPLGSFLIRVSHSHVGYTLSYKAQSSCCHFMVKLLDDGTFMIPGEKVAHTSLDALVTFHQQKPIEPRRELLTQPCRQKD | soluble |
| MGSDKIHHHHHHMVHVKMKGSKMLFEALLKEGVDTIFGIPGGAIINVYDELCNYEDKINFYLFRHEQGATHAADGYARVTGKPGVVIVTSGPGATNTVTGIATAYMDSIPIVVITGQVPTSFIGTDAFQEVDVTGITMPITKHNHLVTSIEELPYAIKEMFYVATTGRPGPVLLDFPKDIQTAEGEFNYPDTVEIPGYKPTVKGHPKQIKKAVELLKESKRPVVIVGGGANLSGAMDLVNQFIDKFKVPAVSTLMGRGVNPSDEKLYYEGIGMHGTYYGNYAVANADLIIALGVRFSDRILGNPRTFAKNARIVHVDIDPAEIGKNVRVDVPIVGDLKSVLEEFLKYEIETDFSDWIEELQEIKKKYPLTYKRDGKLIKPQYVVEKVNEVFPDDTVVVADVGQNQMWVAQFYKFKHQRSFLCSGGLGTMGYALPAGIGAKIGAPDKEVVVFAGDGGFQMNIQELMTIKRYNLPVKIIVMDNKALGMVRQWQQLFFNCRYSATILSDNPDFAKIAEAVGIKAMRIEKPDQVDEAIEKLAKSKEPMLIHAVVDPAENVLPMVPPGGDVGTPLIEAPYDETFVERVLKVIEESRRGDER | not soluble |
| MDARPVHPAFQVFTDALRQRFGEALDAVVLYGSCLHTSDLTEGIADFYVLVSDYRLAYSGRLLAGLNAWLPPNVFYLEVPAAAGVMRAKYAVISTADFERGARQWFHPYIWARFAQPARLLYARDDQTGKRVHTAQASAVLKFISTTLPVLESGPSDLEMIWASGLMLTYAAELRAEREARARHLVRIDPEIYSRLTAAAMPALIPLLSLQADGRYHIGPITPLKRLSARIHWRLRRWQGRVLSVLRLSKATMTFRDCLDYAAWKIERHTGIKVEITPMLRRHPILWGYKVMWQLLRRGVLRLEHHHHHH | soluble |
| MEKKITLIPPPEFVQYVGGHFEEVGKEFMQYFIEIGNLKSNETVLDVGCGIGRMAVPLMNYLSDDGTYYGFDLFNKGITWCKNNISTRRNNFHFEHVDIYNQFYNPDGKEDASQYKFPYEDESFDFIFLTSVFTHLLPKELEHYVREIARVLKKDGRCFITFFLINPESSYYLNAGLSPLGFYHQIDNCYVLNKDIPNFAVAYPEEDIRTLLNKYGLEMQTPPHYGSWCGRTEHTSYQDIILAQKLEHHHHHH | not soluble |
| MIKILQTKSGVTKFQVLIEIAAHQPNVRQKEIAAKIGITPQAVSEYIKELVNDGLIVTEGRVRYRITKEGVEWVLENATEMKQYARFVMEDIISHVSTWTAITREEVKEGQQVYLKMDHGLLYVSSREVTGASGAIISDAAEGEDVGVTSLKGLIDLENATITICKVPRVERGGSRKVDLERLKMLADAKPYIAAIGVESLIALRKIGISPNVMFGTNESVIEAAYHGLSSLVVSVDEQVSALLNRLETENLEYELVDLTVE | not soluble |
| MGSDKIHHHHHHMHQTLATSRKTSNACNVLALCTRDNPAILTIAHRGFWTATAENSLASVRAAVAAGVEMIEIDTQATADGRLVVIHDETLDRTTTGKGTVSALPFEVVRAAKLKAGAGGDGADVTDECVPTLEEVLEEARGRITVNIDTKFTRDLPQVMETVLRLGVEDQVLVKTDVDPEAERFEVLGSHWFGRIPHMPMFPVRKGKFAEDLRRIEALKAPMIEVKFTDIADLAEGRAEMERQNIRLWINSLDVSHCLDFNDTRALSNPEAVWGALAEAGTGAIQTDEVEAFTAWLKAGAGETGRAWTR | not soluble |
| MDTLQFQKNPETAAKMSAYMKHQFVFAGIPAPERQALSKQLLKESHTWPKEKLCQEIEAYYQKTEREYQYVAIDLALQNVQRFSLEEVVAFKAYVPQKAWWDSVDAWRKFFGSWVALHLTELPTIFALFYGAENFWNRRVALNLQLMLKEKTNQDLLKKAIIYDRTTEEFFIQKAIGWSLRQYSKTNPQWVEELMKELVLSPLAQREGSKYLAKASE | soluble |
| MSKLCKEFSLSATVKNMSRFVDGEEYYTDTEERFNIPWRMFIRKDSGYFDLGLVCEKDSWENREWSIETDYKMKFVSHNGDSLTDSEHFTFENSNKSDVCLMKPWDLLESDYVVDDSIVVEAYVKIIKMTDTPCDEDENIETFLLSNTVKNISSIEEGDDYYTEIATRHNVPWRMQIKRNNGFFELYLRCEKEEQPEWGWKIELDYDLRLVSLNGQSLSLTDSGSFSKPFCEGFEKFMRWNIMEENYIVKDSIIIEARGKITKMIGCDDDSSSDDGEDESSKSHSESDTSSDNLEDEFSECVINVGGQN | not soluble |
| MSLQGIHTISFVGLGLIGASLMQALKRAAGATGRNIEMIGFDPAFDAADIVAITGECGLDRFEPDPAKLYNADLVVLCAPVVTNIALLDEAKRHIRKDTLVSDVSSTKAEIAAKAQELGIEFIGMHPIAGREQQGYQAASPELLDGRLVILCTECATLETTLATELAGLLRAAGCKPLFMSPEEHDRVYANISHLPQLISTALMAHCRENVEWAGPGFASMARLAGSPWAVWRDIVETNRSNIADEMEAFSALLADVAGEVRGGNFEALESKFREANDLYQRLQERSSEGHHHHHH | soluble |
| MPKAKGKTRRQKFGYSVNRKRLNRNARRKAARGIECSHIRHAWDHAKSVRQNLAEMGLAVDPNRAVPLRKRKVKAMEVDIEERPKELVRKPYVLNDLEAEASLPEKKGNTLSRDLIDYVRYMVENHGEDYKAMARDEKNYYQDTPKQIRSKINVYKRFYPAEWQDFLDSLQKRKMEVELEHHHHHH | not soluble |
| GSMIRSTLSSWREYLTPITHKSTFLTTGQITPEEFVQAGDYLCHMFPTWKWNEESSDISYRDFLPKNKQFLIIRKVPCDKRAEQCVEVEGPDVIMKGFAEDGDEDDVLEYIGSETEHVQSTPAGGTKDSSIDDIDELIQDMEIKEEDENDDTEEFNAKGGLAKDMAQERYYDLYIAYSTSYRVPKMYIVGFNSNGSPLSPEQMFEDISADYRTKTATIEKLPFYKNSVLSVSIHPCKHANVMKILLDKVRVVRQRRRKELQEEQELDGVGDWEDLQDDIDDSLRVDQYLIVFLKFITSVTPSIQHDYTMEGW | soluble |
| MGSDKIHHHHHHMHNKFYRGRFAVAPMLDWTTRHCRYFHRQFSQQALLYTEMITAPAILHAKYDLLEYDPAEQPVALQLGGSDPTQLANCAKLVQARGYTEINLNVGCPSDRVQNGMFGACLMANADLVADCIKAMQDVVDIPVTIKHRIGIDTLDSYAFLCDFIDKIQPYSQDFIVHARKAWLSGLSPKENREIPPLDYERVYQLKRDFPQLNISINGGIKTIDEIKQHLTKVDGVMVGREAYQNPALLGEIDQQLFDQNQPLITARIAVENMLPYIEQQLSKGVYLNHIVRHMLGAFQNCKGARQWRRHLSENACKQGAGIEVVEQALRFVTE | not soluble |
| KKAQLIVAGIGPGSPEDITPAVIQAVKNSDVVIGYKYYFQFIEPYLEPGTECIDTGMKREKARAEQAFELAEQGKTVCVISSGDAGIYGMAPLVYEMKRERGSRVEIEVLPGIS | not soluble |
| MAHHHHHHMGDNGGMVLFKAIAGAIEDGEDKLEYLNLEVNELGEKTAKAMQRVLSSSTALKTLRLSYNSFGGASKYIMEGLAENKYLRSLFLSFCEIREADGAAIGTALTANSTLQHLDLSNNKLKDAGSKCIAEAMKTNEGLISLNLSCNKIADDGGKAIALFLTSNRTLRELNLRRNCMSNATGELLDDQLRGNMTLEKMNVGFNDFRYKSLIGHRTTLARNAEKNKSLIVPKLRAEIEGLSFKERDLSQAEDEIEMERRIIKDRSEQLLRRNEEARVASEKARREIADLEKNLAAVRVRFESAEEVLLRTEERVSNEMAEISGRKANMEARVQQEREKVDRLQREMDRVRRQLKQLEEAEASRLKPLFLEFGIAEADRDREAKECQYEADKLAALELQRKELEKKLGLSLPVAGGVSAPTAKKRK | not soluble |
| MIDAVATDSSSTPSNEKPRRARRTRMTGAERRQQLLEIGRTLFAAKGFEGTSVEEIAAKAGVSKPVVYEHFGGKEGLYAVVVDREMRRLLDMVTGSLTAGHPRELCEQAAFALLDYIEEYTDGFRILVRDSPIPQSTGTFASLISDIATQVEDILGREFKNRGFDAKLAPLYAQALVGMVALTGQWWLDVRRPKKAEVAAHLVNLAWHGLDGLEPKPRLIGHRKS | not soluble |
| MVHVSGTKVKVVKKKLTKFKRHESDRYRRVAPSWRKPKGIDNRVRRRFRGMRAMPTIGHGSDRRTRFVLPNGYKKVLVQNVKDLDMLLMQSYKYIGEIGHGVSAKSRKGIVERAAQLNIKLTNGNARLRTEESE | not soluble |
| MIRRAPTTLQLSHDDVTSLIDDLNEQKLKQQLNIEKTKYFQGKNGGSLHSNTDFQDTSQNIEDNNNDNDNDIDEDDDMSSYNDKAASVAHTRVLNSLHLSTDSNTAHETSNANDNHNPFYIREE | not soluble |
| MGSDKIHHHHHHMQDLNDLSLFAQVVEHGSFSAASRATGIPKSRLSRRIAQLERDLGVQLLRRTTRQVRVTPLGESYYERCRAMLKEAEAAHEVIEQARDQPGGTLRVSCPVAIAQILLAPAIGHFMRANPAVRIELEATNRRVDVIGEGYDLSLRVRDVLEDSSLAVRTFGESQLMLVASPGLLDSIGRPRTPQALDGMPGVGQKPHDGKHVWVLGCKSGETIQIAYDPRLVTDEFSLLREAAIAGIGVAMLPRMYCRDAIDAGELELLLPQWEMPVGTLHAVFPSRKGVTPAVRRFLDFLSEILPENARKVGMHEPRQPAMHRAV | not soluble |
| MAHHHHHHMDYEEPGQATRELTTFVQGLLQNMQTRFQEMSDTIITRIDEMGTRIDDLEKNIAELMQQAGPDEEAAQTASAPKDKKKSKGK | soluble |
| PELADPTPYDIFGIPKAGSGNPKLDKKSLKKKYHRYVKLYHPDHSDNIQIFSSEKVTNSDSKSPLLLTSSEKLHRFKVISQAYDILCDPKKKIVYDTTRQGW | not soluble |
